Changes are numbered by the printed parent chain.
Legend:
[1] = molecular target: T1, Human CD3ε stalk-Fc(knob)-Avi/CD3δ stalk-Fc(hole) (human); experiment: SPR, TCB captured by anti-PG antibody, human CD3ε/δ-Fc as analyte, 25°C
T1 construct: Heterodimer of CD3 delta and CD3 epsilon ectodomains fused to human Fc with knob-into-hole; also called human CD3ε/δ; CD3 antigen
Method: (§1) SPR experiments were performed, using the CD19-TCB molecules prepared in Example 15, on a Biacore T200 instrument at 25° C. with HBS-EP+ as running buffer (0.01 M HEPES pH 7.4, 0.15 M NaCl, 0.005% Surfactant P20 (GE Healthcare, #BR-1006-69)). Anti-PG antibody (see Example 3) was directly immobilized by amine coupling on a C1 chip (GE Healthcare). The different TCB molecules were captured at 25 nM. Three-fold dilution series (in HBS-EP from 0.14 to 100 nM) of the CD19 antigen (CD19 extracellular domain (ECD)-Fc fusion; see SEQ ID NOs 99 and 100) or the CD3 antigen (see Example 3, SEQ ID NOs 41 and 42) were passed over the ligand at 30 μl/min for 240 s to record the association phase. The dissociation phase was monitored for 1500 s (CD19 antigen) or 800 s (CD3 antigen)s and triggered by switching from the sample solution to HBS-EP+. The chip surface was regenerated after every cycle using two injections of 10 mM glycine pH 2.1 for 60 sec. Bulk refractive index differences were corrected for by subtracting the response obtained on the reference flow cell (without captured TCB). The affinity constants were derived from the kinetic rate constants by fitting to a 1:1 Langmuir binding using the Biaeval software (GE Healthcare). The measurement was performed with three independent dilution series.

[2] = molecular target: T2, human CD3 on cells (CD3ε) (human, UniProt P07766 23-207); experiment: flow cytometry on Jurkat cells
T2 construct: CD3 complex as it stands on Jurkat cells or primary T cells; also called CD3-expressing Jurkat cells; CD3-expressing T cells
Method: (§2) The binding of the CD19-TCB molecules prepared in Example 15 to human CD19- and CD3-expressing target cells was tested. Two CD19-expressing cell lines with different levels of CD19 expression were used. Nalm-6, an acute lymphoblastic leukemia (ALL) cell line with high CD 19 expression and Z-138 (Mantle cell lymphoma) with average expression levels. CD3-binding was assessed using immortalized T lymphocyte line (Jurkat cell line). Briefly, cells were harvested, counted, checked for viability and resuspended at 1×10⁶ cells/ml in FACS buffer (PBS+2% FCS+5 mM EDTA+0.25% sodium azide). […] Binding curves and the EC50 values related to binding were calculated using GraphPad Prism 7.

[3] = molecular target: T3, CD19 extracellular domain (ECD)-Fc fusion (human, UniProt P01857 104-328 = IgG part); experiment: SPR, TCB captured by anti-PG antibody, CD19 ECD-Fc as analyte, 25°C
T3 construct: Monovalent CD19 ECD on a knob-into-hole Fc; also called CD19 antigen; recombinant human CD19
Method: as §1

[4] = molecular target: T4, human CD19 on cells (Nalm-6, Z-138) (human, UniProt P15391 20-556); experiment: flow cytometry on Nalm-6 cells
T4 construct: whole, on cells; also called CD19-expressing cells; CD19+ target cells
T4 sequence (looked up): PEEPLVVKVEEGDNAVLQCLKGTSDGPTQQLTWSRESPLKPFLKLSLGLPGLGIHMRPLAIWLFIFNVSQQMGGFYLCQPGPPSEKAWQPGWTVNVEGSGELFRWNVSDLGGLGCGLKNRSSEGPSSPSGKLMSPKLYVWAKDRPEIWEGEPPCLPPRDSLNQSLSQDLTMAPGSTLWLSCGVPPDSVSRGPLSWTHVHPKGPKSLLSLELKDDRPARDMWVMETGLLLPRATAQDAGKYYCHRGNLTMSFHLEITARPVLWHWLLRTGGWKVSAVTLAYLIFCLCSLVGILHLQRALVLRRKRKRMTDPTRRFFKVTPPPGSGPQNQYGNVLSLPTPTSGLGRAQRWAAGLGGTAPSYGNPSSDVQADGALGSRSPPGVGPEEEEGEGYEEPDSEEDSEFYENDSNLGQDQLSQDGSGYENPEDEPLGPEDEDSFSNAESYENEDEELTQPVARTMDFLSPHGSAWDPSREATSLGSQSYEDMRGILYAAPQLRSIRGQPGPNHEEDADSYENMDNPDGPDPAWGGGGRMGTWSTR
Method: as §2

[5] = molecular target: T4, human CD19 on cells (Nalm-6, Z-138); experiment: cell-based or functional assay
[6] = molecular target: T1, Human CD3ε stalk-Fc(knob)-Avi/CD3δ …; experiment: SPR on immobilized human CD3ε/δ after stress, relative to sample kept at -80°C pH 6
Method: All SPR experiments were performed on a Biacore T200 instrument (GE Healthcare) at 25° C. with HBS-P+ (10 mM HEPES, 150 mM NaCl pH 7.4, 0.05% Surfactant P20) as running and dilution buffer. Biotinylated human CD3ε/δ (see Example 3, SEQ ID NOs 41 and 42) as well as biotinylated anti-huIgG (Capture Select, Thermo Scientific, #7103262100) were immobilized on a Series S Sensor Chip SA (GE Healthcare, #29104992), resulting in surface densities of at least 1000 resonance units (RU). Anti-CD3 antibodies with a concentration of 2 μg/ml were injected for 30 s at a flow rate of 5 μl/min, and dissociation was monitored for 120 s. The surface was regenerated by injecting 10 mM glycine pH 1.5 for 60 s. Bulk refractive index differences were corrected by subtracting blank injections and by subtracting the response obtained from a blank control flow cell. For evaluation, the binding response 5 seconds after injection end was taken. To normalize the binding signal, the CD3 binding was divided by the anti-huIgG response (the signal (RU) obtained upon capture of the CD3 antibody on the immobilized anti-huIgG antibody). The relative binding activity was calculated by referencing each temperature stressed sample to the corresponding, non-stressed sample.
The experiment was performed as described in Example 4, using the monovalent IgG molecules prepared in Example 19.

[7] = molecular target: T5, Cynomolgus CD3ε stalk-Fc(knob)-Avi/CD3δ stalk-Fc(hole) (cynomolgus); experiment: SPR, monovalent IgG captured by anti-PG antibody, antigen as analyte, 25°C
T5 construct: also called cynomolgus CD3ε/δ
Method: (§3) SPR experiments were performed as described in Example 3, with the monovalent IgG molecules prepared in Example 19.
(§4) To analyze the interaction to CD3, IgG molecules were captured for 240 s at 50 nM with a flow rate of 5 μl/min. Human and cynomolgus CD3F stalk-Fc(knob)-Avi/CD36-stalk-Fc(hole) were passed at a concentration of 0.061-250 nM with a flow rate of […] through the flow cells for 300 s. The dissociation was monitored for 800 s.

[8] = molecular target: T1, Human CD3ε stalk-Fc(knob)-Avi/CD3δ …; experiment: as above
Method: as §3, §4

T2 sequence (P07766 23-207 limits assumed): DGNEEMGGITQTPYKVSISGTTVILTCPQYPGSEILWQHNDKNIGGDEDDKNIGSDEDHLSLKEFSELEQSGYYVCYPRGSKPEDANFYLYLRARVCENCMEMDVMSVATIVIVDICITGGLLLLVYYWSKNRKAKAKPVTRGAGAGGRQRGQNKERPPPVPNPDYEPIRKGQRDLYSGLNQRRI

B1: CD19-TCB, CD19(018) CD3orig (bispecific antibody, human IgG1, kappa, L234A L235A)
heavy 1: not shown
heavy 2: QVQLVQSGAEVKKPGASVKVSCKASGYTFTDYIMHWVRQAPGQGLEWMGYINPYNDGSKYTEKFQGRVTMTSDTSISTAYMELSRLRSDDTAVYYCARGTYYYGSALFDYWGQGTTVTVSSASTKGPSVFPLAPSSKSTSGGTAALGCLVEDYFPEPVTVSWNSGALTSGVHTFPAVLQSSGLYSLSSVVTVPSSSLGTQTYICNVNHKPSNTKVDEKVEPKSCDKTHTCPPCPAPEAAGGPSVFLFPPKPKDTLMISRTPEVTCVVVDVSHEDPEVKFNWYVDGVEVHNAKTKPREEQYNSTYRVVSVLTVLHQDWLNGKEYKCKVSNKALGAPIEKTISKAKGQPREPQVCTLPPSRDELTKNQVSLSCAVKGFYPSDIAVEWESNGQPENNYKTTPPVLDSDGSFFLVSKLTVDKSRWQQGNVFSCSVMHEALHNHYTQKSLSLSP
light 1: DIVMTQTPLSLSVTPGQPASISCKSSQSLENPNGNTYLNWYLQKPGQSPQLLIYRVSKRFSGVPDRFSGSGSGTDFTLKISRVEAEDVGVYYCLQLTHVPYTFGQGTKLEIKRTVAAPSVFIFPPSDRKLKSGTASVVCLLNNFYPREAKVQWKVDNALQSGNSQESVTEQDSKDSTYSLSSTLTLSKADYEKHKVYACEVTHQGLSSPVTKSFNRGEC
light 2: EVQLLESGGGLVQPGGSLRLSCAASGFTFSTYAMNWVRQAPGKGLEWVSRIRSKYNNYATYYADSVKGRFTISRDDSKNTLYLQMNSLRAEDTAVYYCVRHGNFGNSYVSWFAYWGQGTLVTVSSASVAAPSVFIFPPSDEQLKSGTASVVCLLNNFYPREAKVQWKVDNALQSGNSQESVTEQDSKDSTYSLSSTLTLSKADYEKHKVYACEVTHQGLSSPVTKSFNRGEC
notes: 2+1 IgG CrossFab, inverted; human IgG1 Fc, knob-into-hole, PGLALA
Binder B1 has a Kd [1] of 3.57 nM, a koff [1] of 0.00333 s⁻¹ and a kon [1] of 933000 M⁻¹ s⁻¹. It also gave a t1/2 [1] of 3.5 min, an EC50 [2] of 115 nM and a Kd [3] of 0.95 nM. It also gave a koff [3] of 0.000316 s⁻¹, a kon [3] of 333000 M⁻¹ s⁻¹ and a t1/2 [3] of 36.6 min. For the same binder, the EC50 [4] was 1.5 nM, the “EC50 (pM) of tumor cell lysis, Nalm-6 target cells” value (“EC50 (pM) … Nalm-6 target cells” for short) [5] was 0.3 pM and the “EC50 (pM) of tumor cell lysis, Z-138 target cells” value (from here on “EC50 (pM) … Z-138 target cells”) [5] was 5.4 pM.

B2: anti-CD3 antibody clone P035.093 in monovalent IgG format (antibody)
heavy: not shown
chain: DKTHTCPPCPAPEAAGGPSVFLFPPKPKDTLMISRTPEVTCVVVDVSHEDPEVKFNWYVDGVEVHNAKTKPREEQYNSTYRVVSVLTVLHQDWLNGKEYKCKVSNKALGAPIEKTISKAKGQPREPQVCTLPPSRDELTKNQVSLSCAVKGFYPSDIAVEWESNGQPENNYKTTPPVLDSDGSFFLVSKLTVDKSRWQQGNVFSCSVMHEALHNHYTQKSLSLSP
light: B1 light 2 with T31S, H101A, G102S, G105P, N106A, W111Y
notes: also called monovalent IgG P035.093
With B2 the “binding activity [%] after 2 weeks at pH 6.0/40°C” value [6] was 100%, the “binding activity [%] after 2 weeks at pH 7.4/37°C” value [6] was 93% and the Kd [7] was 0.224 nM. It also gave a koff [7] of 0.000981 s⁻¹, a kon [7] of 4.38e+06 M⁻¹ s⁻¹ and a t1/2 [7] of 11.8 min. For the same binder, the Kd [8] was 0.456 nM, the koff [8] was 0.0014 s⁻¹ and the kon [8] was 3.08e+06 M⁻¹ s⁻¹. The t1/2 [8] was 8.25 min.

B3: CD19-TCB, CD19(2B11) CD3 variant P035.093 (bispecific antibody, human IgG1, kappa, L234A L235A)
heavy 1: not shown
heavy 2: B1 heavy 2 with S105P, A106Q
light 1: B1 light 1 with N31T, P32S, N33T, N35T, T97L, H98E, V99D
light 2: B1 light 2 with T31S, H101A, G102S, G105P, N106A, W111Y
notes: as for B1
With B3 the Kd [1] was 0.38 nM, the koff [1] was 0.00135 s⁻¹ and the kon [1] was 3.56e+06 M⁻¹ s⁻¹. The t1/2 [1] was 8.6 min, the EC50 [2] was 22.3 nM and the Kd [3] was 0.32 nM. The koff [3] was 0.000146 s⁻¹, the kon [3] was 458000 M⁻¹ s⁻¹ and the t1/2 [3] was 79.1 min. For the same binder, the EC50 [4] was 0.6 nM.

B4: CD19-TCB, CD19(2B11) CD3orig (bispecific antibody, human IgG1, kappa, L234A L235A)
heavy 1: not shown
heavy 2: B1 heavy 2 with S105P, A106Q
light 1: B1 light 1 with N31T, P32S, N33T, N35T, T97L, H98E, V99D
light 2: B1 light 2
notes: as for B1
B4 gave a Kd [1] of 3.36 nM, a koff [1] of 0.00378 s⁻¹ and a kon [1] of 1.13e+06 M⁻¹ s⁻¹. It also gave a t1/2 [1] of 3.1 min, an EC50 [2] of 203 nM and a Kd [3] of 0.4 nM. The koff [3] was 0.000176 s⁻¹, the kon [3] was 434000 M⁻¹ s⁻¹ and the t1/2 [3] was 65.6 min. For the same binder, the EC50 [4] was 0.7 nM, the “EC50 (pM) … Nalm-6 target cells” value [5] was 0.3 pM and the “EC50 (pM) … Z-138 target cells” value [5] was 4.8 pM.

B5: CD19-TCB, CD19(018) CD3 variant P035.093 (bispecific antibody, human IgG1, kappa, L234A L235A)
heavy 1: not shown
heavy 2: B1 heavy 2
light 1: B1 light 1
light 2: B1 light 2 with T31S, H101A, G102S, G105P, N106A, W111Y
notes: as for B1
B5 was tested, and the Kd [1] was 0.37 nM, the koff [1] was 0.00135 s⁻¹ and the kon [1] was 3.68e+06 M⁻¹ s⁻¹. It also gave a t1/2 [1] of 8.6 min, an EC50 [2] of 38 nM and a Kd [3] of 1.27 nM. The koff [3] was 0.000392 s⁻¹, the kon [3] was 310000 M⁻¹ s⁻¹ and the t1/2 [3] was 29.5 min. The EC50 [4] was 1.2 nM, the “EC50 (pM) … Nalm-6 target cells” value [5] was 0.9 pM and the “EC50 (pM) … Z-138 target cells” value [5] was 8.1 pM.

B6: CD3orig in monovalent IgG format (antibody)
heavy: not shown
chain: B2 chain
light: B1 light 2
notes: also called monovalent IgG CD3orig
B6 was tested, and the “binding activity [%] after 2 weeks at pH 6.0/40°C” value [6] was 97%, the “binding activity [%] after 2 weeks at pH 7.4/37°C” value [6] was 60% and the Kd [8] was 4.94 nM. For the same binder, the koff [8] was 0.0029 s⁻¹, the kon [8] was 587000 M⁻¹ s⁻¹ and the t1/2 [8] was 3.98 min.

Reference: patent US20260125469A1 (Hoffmann-La Roche, published 2026)
